The assay has as its target human PD-L1 on PD-L1 aAPC/CHO-K1 cells (human) (UniProt Q9NZQ7).

human PD-L1 on PD-L1 aAPC/CHO-K1 cells (human), sequence (Q9NZQ7 19-290): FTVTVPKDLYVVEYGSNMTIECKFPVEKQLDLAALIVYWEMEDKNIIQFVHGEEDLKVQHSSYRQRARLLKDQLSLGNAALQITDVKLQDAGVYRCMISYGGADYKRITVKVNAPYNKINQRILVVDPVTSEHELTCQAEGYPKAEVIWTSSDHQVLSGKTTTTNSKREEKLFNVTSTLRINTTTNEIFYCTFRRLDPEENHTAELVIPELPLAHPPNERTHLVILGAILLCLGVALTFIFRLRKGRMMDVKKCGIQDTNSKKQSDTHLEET

Regarding Atezolizumab (antibody), the EC50 (read off the curve), fold induction, PD1/PD-L1 blockade cell bioassay worked out at 0.5 nM.

The values above are taken from patent publication US20250002585A1.
